This is an account of results in EP4817631A2 (AbbVie Deutschland GmbH & Co. KG, dated 2026).

The target in assay [1] is T1, hRGMa-His (human, UniProt Q96B86 48-422, limits assumed).
T1 construct: not shown: His tag
T1 sequence: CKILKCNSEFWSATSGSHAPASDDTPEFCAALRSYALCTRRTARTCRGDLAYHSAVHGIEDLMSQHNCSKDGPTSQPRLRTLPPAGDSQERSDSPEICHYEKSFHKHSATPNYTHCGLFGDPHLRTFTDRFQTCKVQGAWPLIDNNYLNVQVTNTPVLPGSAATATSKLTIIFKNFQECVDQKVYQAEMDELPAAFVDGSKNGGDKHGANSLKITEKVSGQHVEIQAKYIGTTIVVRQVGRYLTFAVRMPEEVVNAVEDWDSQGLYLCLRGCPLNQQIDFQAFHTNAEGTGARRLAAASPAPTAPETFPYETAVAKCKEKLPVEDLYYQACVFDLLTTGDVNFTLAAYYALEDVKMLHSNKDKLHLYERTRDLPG
Nature of the assay: BIAcore; Ab captured on CM5 chip via anti-hIgG Fc Ab, antigen injected; 1:1 Langmuir fit. Background: SPR reads the build-up and loss of mass on a sensor chip optically.

Assay [2] addresses T2, R &D hRGMc-His (human, UniProt Q6ZVN8 36-400).
T2 construct: Bought (R&D) His-tagged human RGMc; also called human RGMc; not shown: His tag
T2 sequence: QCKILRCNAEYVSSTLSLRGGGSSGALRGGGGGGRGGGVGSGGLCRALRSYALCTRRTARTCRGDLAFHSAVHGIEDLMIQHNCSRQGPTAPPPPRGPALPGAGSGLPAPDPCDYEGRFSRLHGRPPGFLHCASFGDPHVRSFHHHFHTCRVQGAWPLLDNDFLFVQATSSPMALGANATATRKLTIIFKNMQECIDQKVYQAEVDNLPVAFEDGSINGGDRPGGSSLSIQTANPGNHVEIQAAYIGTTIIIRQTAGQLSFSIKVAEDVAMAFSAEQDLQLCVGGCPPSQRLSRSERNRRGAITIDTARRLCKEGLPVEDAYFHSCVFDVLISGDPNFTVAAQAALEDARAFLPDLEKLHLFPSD
The description is as above.

Assay [3] concerns the target Rat RGMa-His (rat) (UniProt D4A188). The assay is described as above.
Assay [4] addresses T1, hRGMa-His. Nature of the assay: affinity KD as listed in Table 4 (equals BIAcore value of Table 5).
The target of assay [5] is Rat RGMa-His (rat) (UniProt D4A188). Described as above.
Assay [6] has as its target T2, R &D hRGMc-His. Nature of the assay: affinity KD as listed in Table 4; method not given.
Assay [7] has as its target T3, hRGMc expressed in 293HEK cells (human, UniProt Q6ZVN8 36-400).
T3 sequence: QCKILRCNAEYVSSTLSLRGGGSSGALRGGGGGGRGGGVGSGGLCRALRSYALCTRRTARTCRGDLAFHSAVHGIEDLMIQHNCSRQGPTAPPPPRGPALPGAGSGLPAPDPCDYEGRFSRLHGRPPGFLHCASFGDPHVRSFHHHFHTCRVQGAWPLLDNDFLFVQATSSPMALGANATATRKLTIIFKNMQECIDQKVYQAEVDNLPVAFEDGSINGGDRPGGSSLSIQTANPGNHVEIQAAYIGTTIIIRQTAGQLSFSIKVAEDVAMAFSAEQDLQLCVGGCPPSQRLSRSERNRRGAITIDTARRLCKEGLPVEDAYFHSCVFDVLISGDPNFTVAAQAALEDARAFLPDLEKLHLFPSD
Put plainly: cell-based or functional assay.

Some results are limits rather than exact numbers.

What is called Kd is the equilibrium constant for the complex coming apart. Lower therefore signals tighter binding. Broadly, the koff is the first-order rate constant of dissociation. Higher therefore signals fast dissociation. The kon is the second-order rate constant of association. A high value points to fast association.

B1: h5F9.AM4 (antibody, V domains shown)
VH: EVQLVESGGGLVQPGGSLRLSCAASGFTFSNYGMNWIRQAPGKGLEWIGMIYYDSSEKHYADSVKGRFTISRDNSKNTLYLQMNSLRAEDTAVYYCAKGTTPDYWGQGTMVTVSS
VL: DVVLTQSPLSLPVTLGQPASISCRSSQSLESSDGDTFLEWFQQRPGQSPRLLIYDVSTRFSGVPDRFSGSGSGTDFTLKISRVEAEDVGVYYCFQVTHDPVTFGQGTKLEIK
notes: also called RGMA-h5F9AM.4; RGMA-h5F9Vh7a/pJP29 1 hIgG1/K mut
As to B1, the Kd in assay [1] was 0.015 nM; in assay [2], 0.13 nM; in assay [3] it was < 0.00094 nM; in assay [4], 0.015 nM; in assay [5], < 0.00094 nM; in assay [6], 0.12 nM. Moreover, the koff was 2.2e-05 s⁻¹ in assay [1], 0.00104 s⁻¹ in assay [2] and < 1e-06 s⁻¹ in assay [3]. Further, the kon in assay [1] stood at 1.4e+06 M⁻¹ s⁻¹; in assay [2] it was 7.85e+06 M⁻¹ s⁻¹; in assay [3], 1.1e+06 M⁻¹ s⁻¹.

B2: humanized antibody 5F9.23 (antibody, V domains shown)
VH: EVQLVESGGGLVQPGGSLRLSCAASGFTFSNYGMNWIRQAPGKGLEWIGMIYYDSSEKHYADSVKGRFTISRDNSKNTLYLQMNSLRAEDTAVYYCAKGTTPDYWGQGTMVTVSS
VL: DVVLTQSPLSLPVTLGQPASISCRSSQSLEYSDGYTFLEWFQQRPGQSPRLLIYEVSNRFSGVPDRFSGSGSGTDFTLKISRVEAEDVGVYYCFQATHDPLTFGQGTKLEIKR
notes: Humanized parental antibody; also called h5F9.23; H5F9.23*
In assay [2], B2 had a Kd of 29 nM and an on-rate constant (kon) of 830000 M⁻¹ s⁻¹. For the same molecule, in assay [3], the Kd was found to be 2.1 nM, the koff was 0.0017 s⁻¹ and the kon was determined as 830000 M⁻¹ s⁻¹. Further, the “IC50, RGMc-mediated BMP reporter (BRE-luc) assay” value in assay [7] worked out at 17 nM.

B3: h5F9.AM11 (antibody, V domains shown)
VH: EVQLVESGGGLVQPGGSLRLSCAASGFTFSNYGMNWVRQAPGKGLEWVSMIYYDSSEKHYADSVKGRFTISRDNSKNTLYLQMNSLRAEDTAVYYCAKGTTPDYWGQGTMVTVSS
VL: DVVLTQSPLSLPVTLGQPASISCRSSQSLEDSDGGTFLEWFQQRPGQSPRLLIYDVSSRFSGVPDRFSGSGSGTDFTLKISRVEAEDVGVYYCFQATHDPLSFGQGTKLEIK
notes: also called RGMA-h5F9AM; 11; RGMA-h5F9pJP302/pJP 303 hIgG1/K mut
As to B3, the Kd in assay [1] was 0.11 nM; in assay [2], 0.285 nM; in assay [3] it was 0.074 nM; in assay [4], 0.11 nM; in assay [5] it was 0.074 nM; in assay [6] it was 0.25 nM. Moreover, the values for the koff in assay [1], in assay [2] and in assay [3] were 9.9e-05 s⁻¹, 0.0014 s⁻¹ and 5.2e-05 s⁻¹, respectively. The values for the kon in assay [1], in assay [2] and in assay [3] were 930000 M⁻¹ s⁻¹, 5.05e+06 M⁻¹ s⁻¹ and 700000 M⁻¹ s⁻¹, respectively.

B4: h5F9.AM9 (antibody, V domains shown)
VH: EVQLVESGGGVVQPGRSLRLSCAASGFTFSNYGMNWVRQAPGKGLEWVAMIYYDSSEKHYADSVKGRFTISRDNSKNTLYLQMNSLRAEDTAVYYCARGTTPDYWGQGTMVTVSS
VL: DVVLTQSPLSLPVTLGQPASISCRSSQSLADSDGDTFLHWFQQRPGQSPRLLIYAVSHRFSGVPDRFSGSGSGTDFTLKISRVEAEDVGVYYCFQATHDPVTFGQGTKLEIK
notes: also called RGMA-h5F9AM.9; RGMA-h5F9pJP297/pJP 299 hIgG1/K mut
Consider B4, for which the Kd in assay [1] was 0.47 nM; in assay [2], 0.71 nM; in assay [3], 0.31 nM; in assay [4] it was 0.47 nM; in assay [5], 0.31 nM; in assay [6], 0.69 nM. In addition, the koff in assay [1] came out at 0.0004 s⁻¹; in assay [2] it was 0.0107 s⁻¹; in assay [3] it was 0.00021 s⁻¹. Also, the kon in assay [1] was 860000 M⁻¹ s⁻¹; in assay [2], 1.55e+07 M⁻¹ s⁻¹; in assay [3], 680000 M⁻¹ s⁻¹.

B5: h5F9.AM8 (antibody, V domains shown)
VH: EVQLVESGGGLVQPGGSLRLSCAASGFTFSNYGMNWIRQAPGKGLEWIGMIYYDSSEKHYADSVKGRFTISRDNSKNTLYLQMNSLRAEDTAVYYCAKGTTPDYWGQGTMVTVSS
VL: DVVLTQSPLSLPVTLGQPASISCRSSQSLEESDGYTFLHWFQQRPGQSPRLLIYEVSTRFSGVPDRFSGSGSGTDFTLKISRVEAEDVGVYYCFQATHDPLTFGQGTKLEIK
notes: also called RGMA-h5F9AM.8; RGMA-h5F9pJP297/pJP 298 hIgG1/K mut
For B5, the Kd was 0.031 nM in assay [1]; 0.105 nM in assay [2]; < 0.0015 nM in assay [3]; 0.031 nM in assay [4]; < 0.0015 nM in assay [5]; 0.08 nM in assay [6]. The figures for the koff in assay [1], in assay [2] and in assay [3] were 2.7e-05 s⁻¹, 0.00039 s⁻¹ and < 1e-06 s⁻¹, respectively. Moreover, the kon in assay [1] stood at 870000 M⁻¹ s⁻¹; in assay [2], 3.95e+06 M⁻¹ s⁻¹; in assay [3], 660000 M⁻¹ s⁻¹.
